Data as given in patent publication US20110123544A1 (published 2011).
Substitutions are numbered along the chain they refer to. In names and notes the source's numbering stands.

Columns and labels:
[1] = biological target: T1, recombinant rhesus IL-12 (rhesus monkey, UniProt P48095 23-328; P48091 23-219); assay: neutralisation bioassays with purified rhesus IL-12
T1 construct: Obtained from Emory University School of Medicine
T1 sequence (looked up) 1: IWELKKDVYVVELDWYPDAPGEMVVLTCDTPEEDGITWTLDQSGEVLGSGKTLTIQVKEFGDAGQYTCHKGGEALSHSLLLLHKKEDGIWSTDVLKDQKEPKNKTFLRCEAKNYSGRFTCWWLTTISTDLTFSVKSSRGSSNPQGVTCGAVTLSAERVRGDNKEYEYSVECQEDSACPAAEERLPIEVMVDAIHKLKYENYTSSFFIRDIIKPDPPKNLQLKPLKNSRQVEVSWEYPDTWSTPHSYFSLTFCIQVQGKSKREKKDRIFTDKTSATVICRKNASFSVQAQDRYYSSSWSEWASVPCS
T1 sequence (looked up) 2: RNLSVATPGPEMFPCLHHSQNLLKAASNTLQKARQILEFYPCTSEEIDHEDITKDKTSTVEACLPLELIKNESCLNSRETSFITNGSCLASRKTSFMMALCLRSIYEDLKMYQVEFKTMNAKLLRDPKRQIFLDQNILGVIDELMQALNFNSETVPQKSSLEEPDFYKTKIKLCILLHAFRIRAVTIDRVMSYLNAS

[2] = biological target: T2, recombinant murine IL-12 (mouse, UniProt P43432 23-335; P43431 23-215); assay: neutralisation bioassay with purified murine IL-12 (2D6 cell proliferation)
T2 construct: R&D Systems Cat. No. 419-ML in the BIAcore test; 'purified murine IL-12' in the bioassays; also called mouse IL-12; rmIL12
T2 sequence (looked up) 1: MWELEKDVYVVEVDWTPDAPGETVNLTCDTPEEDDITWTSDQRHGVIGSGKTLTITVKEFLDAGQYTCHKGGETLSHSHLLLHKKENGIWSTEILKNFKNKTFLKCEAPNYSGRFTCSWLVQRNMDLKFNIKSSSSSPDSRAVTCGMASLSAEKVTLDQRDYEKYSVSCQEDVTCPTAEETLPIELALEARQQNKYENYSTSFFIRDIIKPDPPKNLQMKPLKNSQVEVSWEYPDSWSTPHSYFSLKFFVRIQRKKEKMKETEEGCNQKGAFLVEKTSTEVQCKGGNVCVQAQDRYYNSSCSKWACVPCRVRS
T2 sequence (looked up) 2: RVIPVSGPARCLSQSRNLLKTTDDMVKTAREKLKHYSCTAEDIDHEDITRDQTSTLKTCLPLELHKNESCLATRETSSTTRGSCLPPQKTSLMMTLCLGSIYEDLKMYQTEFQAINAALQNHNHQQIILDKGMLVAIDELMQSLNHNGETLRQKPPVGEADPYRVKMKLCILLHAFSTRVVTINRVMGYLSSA

[3] = biological target: T3, recombinant human interleukin 12 (p40/p35 heterodimer) (human, UniProt P29460 23-328; P29459 23-219); assay: IL-12 receptor binding assay (RBA): inhibition of labelled IL-12 binding to PHA blasts
T3 construct: Disulfide-linked heterodimer; also called human IL-12; hIL-12
T3 sequence (looked up) 1: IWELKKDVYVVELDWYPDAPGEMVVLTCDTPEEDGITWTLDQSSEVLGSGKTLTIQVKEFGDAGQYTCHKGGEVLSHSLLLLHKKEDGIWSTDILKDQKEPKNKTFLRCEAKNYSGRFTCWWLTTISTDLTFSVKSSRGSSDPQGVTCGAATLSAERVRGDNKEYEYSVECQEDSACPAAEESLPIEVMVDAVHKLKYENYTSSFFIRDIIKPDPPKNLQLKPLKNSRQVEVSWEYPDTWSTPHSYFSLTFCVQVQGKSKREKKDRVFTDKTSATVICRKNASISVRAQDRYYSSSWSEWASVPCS
T3 sequence (looked up) 2: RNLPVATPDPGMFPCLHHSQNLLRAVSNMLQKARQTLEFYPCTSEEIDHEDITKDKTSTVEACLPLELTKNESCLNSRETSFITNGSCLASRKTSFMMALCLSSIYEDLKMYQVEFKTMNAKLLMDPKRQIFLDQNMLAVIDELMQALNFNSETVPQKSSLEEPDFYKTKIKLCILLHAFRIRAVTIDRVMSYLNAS

[4] = biological target: T3, recombinant human interleukin 12 …; assay: surface plasmon resonance (BIAcore)

B1: J695 human anti-human IL-12 antibody (antibody, V domains shown)
VH: QVQLVESGGGVVQPGRSLRLSCAASGFTFSSYGMHWVRQAPGKGLEWVAFIRYDGSNKYYADSVKGRFTISRDNSKNTLYLQMNSLRAEDTAVYYCKTHGSHDNWGQGTMVTVSS
VL: QSVLTQPPSVSGAPGQRVTISCSGSRSNIGSNTVKWYQQLPGTAPKLLIYYNDQRPSGVPDRFSGSKSGTSASLAITGLQAEDEADYYCQSYDRYTHPALLFGTGTKVTVLG
notes: tested as human IgG1 with lambda light chain (detected with anti-human lambda); Made in CHO or COS cells; also called Y61-L94Y-L50Y IgG
B1: binds [1]; no binding [2].

B2: Joe 9 wild type (scFv, V domains shown)
VH: B1 VH with E6Q, N84K, K97T, H99S, H102Y, N104Y
VL: SYVLTQPPSVSGTPGQRVTISCSGGRSNIGSNTVKWYQQLPGTAPKLLIYGNDQRPSGVPDRFSGSKSGTSASLAITGVQAEDEADYYCQSYDSSLRGSRVFGTGTKVTVL
B2 gave an IC50 [3] of 1000 nM.

B3: Y61 scFv (scFv, V domains shown)
VH: B1 VH with E6Q, N84K
VL: B1 VL with Q1S, S2Y, A13T, S25G, N28W, Y51G, L79V, Y95G
notes: Single-chain Fv; also called clone Y61
With B3 the koff [4] was about 0.0002 s⁻¹.
